These results are taken from article doi:10.1101/2025.11.05.686744 (bioRxiv, 2025).

Substitutions are numbered along the chain they refer to. Names may count otherwise.

In test [1] the target is Spindlin1 (residues 50-262) (human, UniProt Q9Y657 50-262). Kind of test: NMR titration.
Test [2] addresses Spindlin1^C96A/H252F (residues 50-262) (human, UniProt Q9Y657 50-262, C96A | H252F). The test can be described thus: NMR titration.

Chain of Spindlin1^C96A/H252F (residues 50-262) (Q9Y657 50-262 C96A/H252F): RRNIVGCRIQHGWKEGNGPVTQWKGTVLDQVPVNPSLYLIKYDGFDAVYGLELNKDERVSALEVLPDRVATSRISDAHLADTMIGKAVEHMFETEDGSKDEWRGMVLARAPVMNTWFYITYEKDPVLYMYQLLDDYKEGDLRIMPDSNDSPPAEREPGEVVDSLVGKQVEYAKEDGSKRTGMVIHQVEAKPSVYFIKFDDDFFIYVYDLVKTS
Chain of Spindlin1 (residues 50-262) (Q9Y657 50-262): as the sequence (Q9Y657 50-262 C96A/H252F) above, with A47C, F203H counted along it

B1: HBx_(1-120) protein genotype D (Hepatitis B virus protein X, short isoform) (domain or fragment)
chain: MAARLCCQLDPARDVLCLRPVGAESCGRPFSGSLGTLSSPSPSAVPTDHGAHLSLRGLPVCAFSSAGPCALRFTSARRMETTVNAHQILPKVLHKRTLGLSAMSTTDLEAYFKDCLFKDW
Consider B1, for which, in test [1], the binding result is reported as “binds”.

B2: HBx_(1-120)^C61A/C69A (domain or fragment, Hepatitis B virus genotype D, UniProt P03165 1-120, looked up)
chain: B1 chain with C61A, C69A
On to B2, for which the binding result in test [2] is listed as “binds”.
